According to US20140271478A1 (University of California, published 2014):

T1: mouse integrin β8 (mouse, UniProt Q0VBD0 22-767)
T1 construct: whole, on cells; also called mouse β8; itgb8
T1 sequence (looked up): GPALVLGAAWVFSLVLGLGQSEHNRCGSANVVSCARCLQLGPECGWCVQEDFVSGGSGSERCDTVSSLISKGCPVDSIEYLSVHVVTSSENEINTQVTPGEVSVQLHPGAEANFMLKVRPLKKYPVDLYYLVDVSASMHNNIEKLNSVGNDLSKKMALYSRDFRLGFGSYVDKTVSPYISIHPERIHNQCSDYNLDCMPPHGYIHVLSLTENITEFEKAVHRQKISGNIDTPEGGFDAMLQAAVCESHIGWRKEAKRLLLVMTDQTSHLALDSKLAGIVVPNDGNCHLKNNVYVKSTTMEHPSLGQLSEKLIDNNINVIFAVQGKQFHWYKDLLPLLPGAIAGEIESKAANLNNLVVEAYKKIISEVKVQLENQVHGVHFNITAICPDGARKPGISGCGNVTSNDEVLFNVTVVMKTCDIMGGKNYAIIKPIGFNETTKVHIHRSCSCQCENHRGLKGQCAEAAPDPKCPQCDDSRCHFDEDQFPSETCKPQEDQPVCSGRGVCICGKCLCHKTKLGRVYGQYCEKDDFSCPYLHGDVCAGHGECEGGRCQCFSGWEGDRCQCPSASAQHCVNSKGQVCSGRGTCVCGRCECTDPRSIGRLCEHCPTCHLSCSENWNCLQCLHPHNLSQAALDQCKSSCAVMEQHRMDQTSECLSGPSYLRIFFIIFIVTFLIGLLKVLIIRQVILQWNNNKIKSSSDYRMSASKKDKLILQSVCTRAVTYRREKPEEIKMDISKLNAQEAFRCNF

T2: human integrin β8 swap construct V R I N S (SEQ ID NO:124) (human, UniProt P26012 43-769)
T2 sequence: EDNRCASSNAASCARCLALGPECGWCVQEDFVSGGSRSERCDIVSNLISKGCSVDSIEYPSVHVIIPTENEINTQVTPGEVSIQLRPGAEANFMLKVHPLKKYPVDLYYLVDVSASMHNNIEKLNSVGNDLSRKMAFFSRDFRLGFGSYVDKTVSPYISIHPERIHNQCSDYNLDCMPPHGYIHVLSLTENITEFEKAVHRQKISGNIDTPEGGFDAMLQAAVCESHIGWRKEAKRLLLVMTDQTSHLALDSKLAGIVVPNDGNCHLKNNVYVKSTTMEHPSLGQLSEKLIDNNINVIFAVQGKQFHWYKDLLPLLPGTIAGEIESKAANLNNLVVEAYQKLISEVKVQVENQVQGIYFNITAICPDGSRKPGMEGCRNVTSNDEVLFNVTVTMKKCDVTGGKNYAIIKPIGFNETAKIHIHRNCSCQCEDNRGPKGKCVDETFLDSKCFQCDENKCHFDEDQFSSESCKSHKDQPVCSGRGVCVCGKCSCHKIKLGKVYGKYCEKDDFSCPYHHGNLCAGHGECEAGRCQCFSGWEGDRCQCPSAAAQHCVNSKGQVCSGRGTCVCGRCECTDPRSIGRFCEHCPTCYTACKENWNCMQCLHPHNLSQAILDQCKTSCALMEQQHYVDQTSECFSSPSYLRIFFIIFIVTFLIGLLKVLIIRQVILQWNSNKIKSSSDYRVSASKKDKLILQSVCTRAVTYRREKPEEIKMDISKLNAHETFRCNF

T3: human integrin β8 swap construct I G I N P (SEQ ID NO:125) (human, UniProt P26012 43-769)
T3 sequence: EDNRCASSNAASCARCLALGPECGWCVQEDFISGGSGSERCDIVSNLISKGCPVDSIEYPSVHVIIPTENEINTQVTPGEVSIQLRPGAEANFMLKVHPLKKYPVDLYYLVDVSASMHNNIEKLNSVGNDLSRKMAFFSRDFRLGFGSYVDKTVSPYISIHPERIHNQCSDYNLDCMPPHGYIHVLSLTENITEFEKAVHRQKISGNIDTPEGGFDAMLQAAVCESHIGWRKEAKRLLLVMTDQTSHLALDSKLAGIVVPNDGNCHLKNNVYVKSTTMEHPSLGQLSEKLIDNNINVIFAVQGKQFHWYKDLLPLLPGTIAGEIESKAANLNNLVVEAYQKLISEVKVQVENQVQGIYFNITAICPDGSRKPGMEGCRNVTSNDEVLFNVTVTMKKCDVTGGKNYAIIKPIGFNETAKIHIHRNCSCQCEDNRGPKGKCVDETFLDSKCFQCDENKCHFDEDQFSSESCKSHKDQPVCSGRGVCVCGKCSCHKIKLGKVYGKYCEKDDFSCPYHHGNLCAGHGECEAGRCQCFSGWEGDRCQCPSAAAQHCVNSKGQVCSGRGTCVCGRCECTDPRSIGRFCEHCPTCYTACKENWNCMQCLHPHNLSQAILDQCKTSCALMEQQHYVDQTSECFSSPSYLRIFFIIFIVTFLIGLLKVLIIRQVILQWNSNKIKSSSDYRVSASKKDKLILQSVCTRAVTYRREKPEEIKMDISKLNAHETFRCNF

T4: human integrin β8 swap construct I G I N S (SEQ ID NO:126) (human, UniProt P26012 43-769)
T4 sequence: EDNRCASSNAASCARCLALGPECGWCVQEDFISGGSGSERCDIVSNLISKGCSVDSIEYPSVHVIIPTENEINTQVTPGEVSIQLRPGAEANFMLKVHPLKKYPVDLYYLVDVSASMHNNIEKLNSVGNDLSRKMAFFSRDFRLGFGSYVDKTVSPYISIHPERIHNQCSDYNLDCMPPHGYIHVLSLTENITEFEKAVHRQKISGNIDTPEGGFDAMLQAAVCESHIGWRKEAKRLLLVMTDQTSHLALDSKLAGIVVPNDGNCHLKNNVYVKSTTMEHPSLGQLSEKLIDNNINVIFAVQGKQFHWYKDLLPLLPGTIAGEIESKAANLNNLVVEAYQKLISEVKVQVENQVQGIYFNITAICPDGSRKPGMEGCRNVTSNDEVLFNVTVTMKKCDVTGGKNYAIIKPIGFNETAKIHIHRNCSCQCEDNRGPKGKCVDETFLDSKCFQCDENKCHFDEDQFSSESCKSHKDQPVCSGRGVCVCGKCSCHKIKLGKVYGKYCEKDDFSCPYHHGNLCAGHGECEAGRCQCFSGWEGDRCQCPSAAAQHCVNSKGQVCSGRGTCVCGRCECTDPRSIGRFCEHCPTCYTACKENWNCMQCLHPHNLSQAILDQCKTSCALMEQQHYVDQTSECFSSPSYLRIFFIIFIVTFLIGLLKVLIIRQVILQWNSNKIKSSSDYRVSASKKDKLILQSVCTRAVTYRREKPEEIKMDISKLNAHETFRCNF


Assays:
mouse integrin β8 [1] = biological target: T1, mouse integrin β8; test: cell surface staining, flow cytometry
mouse integrin β8 [2] = biological target: T1, mouse integrin β8; test: flow cytometry, cell surface staining of β8 amino acid swap constructs
[3] = biological target: T2, human integrin β8 swap construct V R I …; test: as above
[4] = biological target: T3, human integrin β8 swap construct I G I …; test: as above
[5] = biological target: T4, human integrin β8 swap construct I G I …; test: as above
[6] = biological target: T5, human integrin αβ8 (αvβ8) expressed on cells (human, UniProt P06756 31-1048); test: as above
T5 construct: whole, on cells; β8 transfected into or endogenous on cells, unfixed or formalin fixed; also called human integrin β8; ITGB8
T5 sequence (P06756 31-1048): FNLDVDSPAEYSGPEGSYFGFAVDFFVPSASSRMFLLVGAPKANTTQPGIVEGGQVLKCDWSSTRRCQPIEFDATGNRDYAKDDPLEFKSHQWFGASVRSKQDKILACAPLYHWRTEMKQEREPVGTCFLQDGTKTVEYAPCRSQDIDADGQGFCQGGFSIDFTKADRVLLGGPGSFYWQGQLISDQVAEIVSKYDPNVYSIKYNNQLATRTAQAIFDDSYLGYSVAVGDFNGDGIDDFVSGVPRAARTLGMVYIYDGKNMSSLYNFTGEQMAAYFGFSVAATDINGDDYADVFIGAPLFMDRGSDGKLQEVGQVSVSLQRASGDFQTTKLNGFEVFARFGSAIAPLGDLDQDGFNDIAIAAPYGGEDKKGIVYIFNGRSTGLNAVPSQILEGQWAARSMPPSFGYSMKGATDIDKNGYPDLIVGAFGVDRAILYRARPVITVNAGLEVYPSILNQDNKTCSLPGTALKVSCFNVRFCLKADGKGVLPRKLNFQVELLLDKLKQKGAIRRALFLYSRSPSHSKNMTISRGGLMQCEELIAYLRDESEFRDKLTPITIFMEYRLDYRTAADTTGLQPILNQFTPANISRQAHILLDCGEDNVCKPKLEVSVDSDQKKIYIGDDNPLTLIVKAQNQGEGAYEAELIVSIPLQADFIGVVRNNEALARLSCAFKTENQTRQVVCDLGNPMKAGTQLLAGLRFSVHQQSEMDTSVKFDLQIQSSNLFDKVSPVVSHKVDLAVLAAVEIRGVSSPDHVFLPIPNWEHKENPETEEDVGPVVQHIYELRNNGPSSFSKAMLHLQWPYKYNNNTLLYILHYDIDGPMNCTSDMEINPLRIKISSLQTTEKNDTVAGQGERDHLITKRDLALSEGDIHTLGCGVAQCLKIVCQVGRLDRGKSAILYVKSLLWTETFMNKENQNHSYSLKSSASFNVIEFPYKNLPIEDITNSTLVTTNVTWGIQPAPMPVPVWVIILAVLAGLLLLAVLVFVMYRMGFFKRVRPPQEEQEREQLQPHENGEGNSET

| Binder | binding result (mouse integrin β8 [1]) | % positive (mouse integrin β8 [2]) [%] | % positive [3] [%] | % positive [4] [%] | % positive [5] [%] | % positive [6] [%] |
| --- | --- | --- | --- | --- | --- | --- |
| 4F1 antibody (antibody, V domains shown, Hybridoma antibody; also called hybridoma clone 4F1) VH: QVQLQQSGAELVRPGTSVKVSCKASGYAFTNYLIEWVKQRPGQGLEWIGVINPGTGGTNYNKKFKVKATLTADKSSSTAYMQLGGLTFDDSAVYFCAREGNARTYYYAMDYWGQGTSVTVSS VL: DIEMTQTPASLSASVGETVTITCRASENIYSYLVWYQQKQGKSPQVLVYNAKTLAEGVPSRFSGSGSGTQFSLKINSLQPEDFGSYYCQHHNGTPYTFGGGTKLEIKR | no binding | 3 | 92 | 0 | 101 | 100 |
| 6B9 antibody (antibody, V domains shown, Hybridoma antibody; also called hybridoma clone 6B9) VH: QVQLQQSGAELVRPGTSVKVSCKASGYAFTDYLIEWVKQRPGQGLEWIGVINPETGGTNYNAKFKGKATLTADKSSSSAYMQLSSLTSGDSAVYFCAREAGNYIYAMDYWGQGTSVTVSS VL: DIQMTQSPASLSASVGETVTITCRASVNIYSYLVWYQQKQGKSPQLLVHNAKTLAEGVPSRFSGSGSGTQFSLKINSLQPEDFGSYYCQHHHGTPYTFGGGTKLEIKR | no binding | 6 | 102 | 1 | 104 | 100 |
